Patent US20130005646A1 (Novo Nordisk, published 2013)
Starred links: 1 amine or outer side, 2 acyl side, 3 side chain; linkers in the order of their positions; H or OH if unused. Positions of bridges follow the written chain, without caps; N, C: chain ends. *: point of attachment. C20 diacid = O=C(O)CCCCCCCCCCCCCCCCCCC(=O)*; γGlu = O=C(O)[C@H](CCC(=O)[*:2])N[*:1]

T1: human calcitonin (a) receptor (human, UniProt P30988 25-474)
T1 sequence (looked up): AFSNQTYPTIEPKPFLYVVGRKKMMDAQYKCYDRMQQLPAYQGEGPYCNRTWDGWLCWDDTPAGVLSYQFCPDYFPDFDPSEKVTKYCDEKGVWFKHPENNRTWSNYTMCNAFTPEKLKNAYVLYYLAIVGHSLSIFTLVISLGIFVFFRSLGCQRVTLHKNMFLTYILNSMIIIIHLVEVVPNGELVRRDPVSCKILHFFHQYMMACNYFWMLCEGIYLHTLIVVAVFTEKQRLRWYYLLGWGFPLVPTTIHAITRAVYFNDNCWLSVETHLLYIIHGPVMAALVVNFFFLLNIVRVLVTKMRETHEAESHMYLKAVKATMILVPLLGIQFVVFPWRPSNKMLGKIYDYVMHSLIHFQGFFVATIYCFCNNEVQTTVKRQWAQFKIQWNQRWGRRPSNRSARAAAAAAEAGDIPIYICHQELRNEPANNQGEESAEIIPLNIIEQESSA

T2: human amylin 3(a) receptor (human calcitonin receptor + RAMP-3) (human, UniProt P30988 25-474; O60896 24-148)
T2 sequence (looked up) 1: T1 sequence (looked up)
T2 sequence (looked up) 2: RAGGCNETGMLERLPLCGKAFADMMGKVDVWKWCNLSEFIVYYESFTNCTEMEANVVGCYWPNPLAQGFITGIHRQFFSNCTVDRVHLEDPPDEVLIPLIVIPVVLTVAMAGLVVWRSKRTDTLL

B1: N-alpha-[(S)-4-Carboxy-4-(19-carboxynonadecanoylamino)butyryl]-[des1,Glu14,His17,Pro37]-pramlintide (peptide)
peptide: {C20 diacid-γGlu}-CNTATCATQRLAEFLHHSSNNFGPILPPTNVGSNTP-NH2
modifications: disulfide 1-6
SMILES: CC[C@H](C)[C@H](NC(=O)[C@@H]1CCCN1C(=O)CNC(=O)[C@H](Cc1ccccc1)NC(=O)[C@H](CC(N)=O)NC(=O)[C@H](CC(N)=O)NC(=O)[C@H](CO)NC(=O)[C@H](CO)NC(=O)[C@H](Cc1c[nH]cn1)NC(=O)[C@H](Cc1c[nH]cn1)NC(=O)[C@H](CC(C)C)NC(=O)[C@H](Cc1ccccc1)NC(=O)[C@H](CCC(=O)O)NC(=O)[C@H](C)NC(=O)[C@H](CC(C)C)NC(=O)[C@H](CCCNC(=N)N)NC(=O)[C@H](CCC(N)=O)NC(=O)[C@@H](NC(=O)[C@H](C)NC(=O)[C@@H]1CSSC[C@H](NC(=O)CC[C@H](NC(=O)CCCCCCCCCCCCCCCCCCC(=O)O)C(=O)O)C(=O)N[C@@H](CC(N)=O)C(=O)N[C@@H]([C@@H](C)O)C(=O)N[C@@H](C)C(=O)N[C@@H]([C@@H](C)O)C(=O)N1)[C@@H](C)O)C(=O)N[C@@H](CC(C)C)C(=O)N1CCC[C@H]1C(=O)N1CCC[C@H]1C(=O)N[C@H](C(=O)N[C@@H](CC(N)=O)C(=O)N[C@H](C(=O)NCC(=O)N[C@@H](CO)C(=O)N[C@@H](CC(N)=O)C(=O)N[C@H](C(=O)N1CCC[C@H]1C(N)=O)[C@@H](C)O)C(C)C)[C@@H](C)O
B2: N-alpha-[(S)-4-Carboxy-4-(19-carboxynonadecanoylamino)butyryl]-[Gly1,Glu14,His17,His35]-pramlintide (peptide)
peptide: {C20 diacid-γGlu}-GCNTATCATQRLAEFLHHSSNNFGPILPPTNVGSHTY-NH2
modifications: disulfide 2-7
SMILES: CC[C@H](C)[C@H](NC(=O)[C@@H]1CCCN1C(=O)CNC(=O)[C@H](Cc1ccccc1)NC(=O)[C@H](CC(N)=O)NC(=O)[C@H](CC(N)=O)NC(=O)[C@H](CO)NC(=O)[C@H](CO)NC(=O)[C@H](Cc1c[nH]cn1)NC(=O)[C@H](Cc1c[nH]cn1)NC(=O)[C@H](CC(C)C)NC(=O)[C@H](Cc1ccccc1)NC(=O)[C@H](CCC(=O)O)NC(=O)[C@H](C)NC(=O)[C@H](CC(C)C)NC(=O)[C@H](CCCNC(=N)N)NC(=O)[C@H](CCC(N)=O)NC(=O)[C@@H](NC(=O)[C@H](C)NC(=O)[C@@H]1CSSC[C@H](NC(=O)CNC(=O)CC[C@H](NC(=O)CCCCCCCCCCCCCCCCCCC(=O)O)C(=O)O)C(=O)N[C@@H](CC(N)=O)C(=O)N[C@@H]([C@@H](C)O)C(=O)N[C@@H](C)C(=O)N[C@@H]([C@@H](C)O)C(=O)N1)[C@@H](C)O)C(=O)N[C@@H](CC(C)C)C(=O)N1CCC[C@H]1C(=O)N1CCC[C@H]1C(=O)N[C@H](C(=O)N[C@@H](CC(N)=O)C(=O)N[C@H](C(=O)NCC(=O)N[C@@H](CO)C(=O)N[C@@H](Cc1c[nH]cn1)C(=O)N[C@H](C(=O)N[C@@H](Cc1ccc(O)cc1)C(N)=O)[C@@H](C)O)C(C)C)[C@@H](C)O
B3: N-alpha-[(S)-4-Carboxy-4-(19-carboxynonadecanoylamino)butyryl]-[Ser1,Glu14,His17,Pro37]-pramlintide (peptide)
peptide: {C20 diacid-γGlu}-SCNTATCATQRLAEFLHHSSNNFGPILPPTNVGSNTP-NH2
modifications: disulfide 2-7
SMILES: CC[C@H](C)[C@H](NC(=O)[C@@H]1CCCN1C(=O)CNC(=O)[C@H](Cc1ccccc1)NC(=O)[C@H](CC(N)=O)NC(=O)[C@H](CC(N)=O)NC(=O)[C@H](CO)NC(=O)[C@H](CO)NC(=O)[C@H](Cc1c[nH]cn1)NC(=O)[C@H](Cc1c[nH]cn1)NC(=O)[C@H](CC(C)C)NC(=O)[C@H](Cc1ccccc1)NC(=O)[C@H](CCC(=O)O)NC(=O)[C@H](C)NC(=O)[C@H](CC(C)C)NC(=O)[C@H](CCCNC(=N)N)NC(=O)[C@H](CCC(N)=O)NC(=O)[C@@H](NC(=O)[C@H](C)NC(=O)[C@@H]1CSSC[C@H](NC(=O)[C@H](CO)NC(=O)CC[C@H](NC(=O)CCCCCCCCCCCCCCCCCCC(=O)O)C(=O)O)C(=O)N[C@@H](CC(N)=O)C(=O)N[C@@H]([C@@H](C)O)C(=O)N[C@@H](C)C(=O)N[C@@H]([C@@H](C)O)C(=O)N1)[C@@H](C)O)C(=O)N[C@@H](CC(C)C)C(=O)N1CCC[C@H]1C(=O)N1CCC[C@H]1C(=O)N[C@H](C(=O)N[C@@H](CC(N)=O)C(=O)N[C@H](C(=O)NCC(=O)N[C@@H](CO)C(=O)N[C@@H](CC(N)=O)C(=O)N[C@H](C(=O)N1CCC[C@H]1C(N)=O)[C@@H](C)O)C(C)C)[C@@H](C)O
B4: N-alpha-[(S)-4-Carboxy-4-(19-carboxynonadecanoylamino)butyryl]-[Ser1,Glu14,His17,His35]-pramlintide (peptide)
peptide: {C20 diacid-γGlu}-SCNTATCATQRLAEFLHHSSNNFGPILPPTNVGSHTY-NH2
modifications: disulfide 2-7
SMILES: CC[C@H](C)[C@H](NC(=O)[C@@H]1CCCN1C(=O)CNC(=O)[C@H](Cc1ccccc1)NC(=O)[C@H](CC(N)=O)NC(=O)[C@H](CC(N)=O)NC(=O)[C@H](CO)NC(=O)[C@H](CO)NC(=O)[C@H](Cc1c[nH]cn1)NC(=O)[C@H](Cc1c[nH]cn1)NC(=O)[C@H](CC(C)C)NC(=O)[C@H](Cc1ccccc1)NC(=O)[C@H](CCC(=O)O)NC(=O)[C@H](C)NC(=O)[C@H](CC(C)C)NC(=O)[C@H](CCCNC(=N)N)NC(=O)[C@H](CCC(N)=O)NC(=O)[C@@H](NC(=O)[C@H](C)NC(=O)[C@@H]1CSSC[C@H](NC(=O)[C@H](CO)NC(=O)CC[C@H](NC(=O)CCCCCCCCCCCCCCCCCCC(=O)O)C(=O)O)C(=O)N[C@@H](CC(N)=O)C(=O)N[C@@H]([C@@H](C)O)C(=O)N[C@@H](C)C(=O)N[C@@H]([C@@H](C)O)C(=O)N1)[C@@H](C)O)C(=O)N[C@@H](CC(C)C)C(=O)N1CCC[C@H]1C(=O)N1CCC[C@H]1C(=O)N[C@H](C(=O)N[C@@H](CC(N)=O)C(=O)N[C@H](C(=O)NCC(=O)N[C@@H](CO)C(=O)N[C@@H](Cc1c[nH]cn1)C(=O)N[C@H](C(=O)N[C@@H](Cc1ccc(O)cc1)C(N)=O)[C@@H](C)O)C(C)C)[C@@H](C)O
B5: N-alpha-[(S)-4-Carboxy-4-(19-carboxynonadecanoylamino)butyryl]-[des1,Glu14,Pro37]-pramlintide (peptide)
peptide: {C20 diacid-γGlu}-CNTATCATQRLAEFLVHSSNNFGPILPPTNVGSNTP-NH2
modifications: disulfide 1-6
SMILES: CC[C@H](C)[C@H](NC(=O)[C@@H]1CCCN1C(=O)CNC(=O)[C@H](Cc1ccccc1)NC(=O)[C@H](CC(N)=O)NC(=O)[C@H](CC(N)=O)NC(=O)[C@H](CO)NC(=O)[C@H](CO)NC(=O)[C@H](Cc1c[nH]cn1)NC(=O)[C@@H](NC(=O)[C@H](CC(C)C)NC(=O)[C@H](Cc1ccccc1)NC(=O)[C@H](CCC(=O)O)NC(=O)[C@H](C)NC(=O)[C@H](CC(C)C)NC(=O)[C@H](CCCNC(=N)N)NC(=O)[C@H](CCC(N)=O)NC(=O)[C@@H](NC(=O)[C@H](C)NC(=O)[C@@H]1CSSC[C@H](NC(=O)CC[C@H](NC(=O)CCCCCCCCCCCCCCCCCCC(=O)O)C(=O)O)C(=O)N[C@@H](CC(N)=O)C(=O)N[C@@H]([C@@H](C)O)C(=O)N[C@@H](C)C(=O)N[C@@H]([C@@H](C)O)C(=O)N1)[C@@H](C)O)C(C)C)C(=O)N[C@@H](CC(C)C)C(=O)N1CCC[C@H]1C(=O)N1CCC[C@H]1C(=O)N[C@H](C(=O)N[C@@H](CC(N)=O)C(=O)N[C@H](C(=O)NCC(=O)N[C@@H](CO)C(=O)N[C@@H](CC(N)=O)C(=O)N[C@H](C(=O)N1CCC[C@H]1C(N)=O)[C@@H](C)O)C(C)C)[C@@H](C)O
B6: N-alpha-[(S)-4-Carboxy-4-(19-carboxynonadecanoylamino)butyryl]-[His1,Glu14,Pro37]-pramlintide (peptide)
peptide: {C20 diacid-γGlu}-HCNTATCATQRLAEFLVHSSNNFGPILPPTNVGSNTP-NH2
modifications: disulfide 2-7
SMILES: CC[C@H](C)[C@H](NC(=O)[C@@H]1CCCN1C(=O)CNC(=O)[C@H](Cc1ccccc1)NC(=O)[C@H](CC(N)=O)NC(=O)[C@H](CC(N)=O)NC(=O)[C@H](CO)NC(=O)[C@H](CO)NC(=O)[C@H](Cc1c[nH]cn1)NC(=O)[C@@H](NC(=O)[C@H](CC(C)C)NC(=O)[C@H](Cc1ccccc1)NC(=O)[C@H](CCC(=O)O)NC(=O)[C@H](C)NC(=O)[C@H](CC(C)C)NC(=O)[C@H](CCCNC(=N)N)NC(=O)[C@H](CCC(N)=O)NC(=O)[C@@H](NC(=O)[C@H](C)NC(=O)[C@@H]1CSSC[C@H](NC(=O)[C@H](Cc2c[nH]cn2)NC(=O)CC[C@H](NC(=O)CCCCCCCCCCCCCCCCCCC(=O)O)C(=O)O)C(=O)N[C@@H](CC(N)=O)C(=O)N[C@@H]([C@@H](C)O)C(=O)N[C@@H](C)C(=O)N[C@@H]([C@@H](C)O)C(=O)N1)[C@@H](C)O)C(C)C)C(=O)N[C@@H](CC(C)C)C(=O)N1CCC[C@H]1C(=O)N1CCC[C@H]1C(=O)N[C@H](C(=O)N[C@@H](CC(N)=O)C(=O)N[C@H](C(=O)NCC(=O)N[C@@H](CO)C(=O)N[C@@H](CC(N)=O)C(=O)N[C@H](C(=O)N1CCC[C@H]1C(N)=O)[C@@H](C)O)C(C)C)[C@@H](C)O

Legend:
[1] = target: T1, human calcitonin (a) receptor; assay: cell-based or functional assay
[2] = target: T2, human amylin 3(a) receptor (human …); assay: cell-based or functional assay

Binder	CTa receptor human EC50 [1] [pM]	Amylin receptor human EC50 [2] [pM]
B1	106	79.5
B2	160	208
B3	70.5	62.5
B4	171	225
B5	73.5	88
B6	72.5	84.5
